Data as given in patent US20160272683A1 (Novo Nordisk, published 2016).
Numbered stars: 1 amine (or outer) side, 2 acyl side, 3 side chain; on linkers, the order of the positions; unused ones are H or OH. * marks the point of attachment. C20 diacid = O=C(O)CCCCCCCCCCCCCCCCCCC(=O)*; C18 diacid = O=C(O)CCCCCCCCCCCCCCCCC(=O)*; γGlu = O=C(O)[C@H](CCC(=O)[*:2])N[*:1]; C14 diacid = O=C(O)CCCCCCCCCCCCC(=O)*

T1: human calcitonin receptor (human, UniProt P30988 25-474)
T1 sequence (looked up): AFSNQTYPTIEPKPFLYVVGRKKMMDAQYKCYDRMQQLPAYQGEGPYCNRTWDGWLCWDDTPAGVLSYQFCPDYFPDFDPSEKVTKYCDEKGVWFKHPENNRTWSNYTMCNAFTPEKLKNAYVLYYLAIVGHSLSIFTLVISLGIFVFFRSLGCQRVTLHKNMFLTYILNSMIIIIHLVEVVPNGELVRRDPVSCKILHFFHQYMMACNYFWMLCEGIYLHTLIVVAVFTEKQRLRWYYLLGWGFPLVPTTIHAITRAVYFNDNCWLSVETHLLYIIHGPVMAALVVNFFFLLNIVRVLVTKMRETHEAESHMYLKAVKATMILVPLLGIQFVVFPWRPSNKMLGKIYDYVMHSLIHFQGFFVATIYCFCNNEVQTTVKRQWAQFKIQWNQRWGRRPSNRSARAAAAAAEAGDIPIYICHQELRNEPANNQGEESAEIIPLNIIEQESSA

T2: human amylin 3(a) receptor (human calcitonin receptor co-expressed with RAMP-3) (human, UniProt P30988 25-474; O60896 24-148, limits assumed)
T2 sequence (looked up) 1: T1 sequence (looked up)
T2 sequence (looked up) 2: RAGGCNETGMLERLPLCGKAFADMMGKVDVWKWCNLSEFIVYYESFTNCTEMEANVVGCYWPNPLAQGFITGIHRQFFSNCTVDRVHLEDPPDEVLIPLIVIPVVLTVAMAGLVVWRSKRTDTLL

B1: [N-terminal(C18 diacid-gGlu), des1, 30S]mimylin (peptide)
peptide: {C18 diacid-γGlu}-ASELSTAALGRLSAELHELATLPRTETGSESP-NH2
SMILES: CC(C)C[C@H](NC(=O)[C@H](C)NC(=O)[C@H](C)NC(=O)[C@@H](NC(=O)[C@H](CO)NC(=O)[C@H](CC(C)C)NC(=O)[C@H](CCC(=O)O)NC(=O)[C@H](CO)NC(=O)[C@H](C)NC(=O)CC[C@H](NC(=O)CCCCCCCCCCCCCCCCC(=O)O)C(=O)O)[C@@H](C)O)C(=O)NCC(=O)N[C@@H](CCCNC(=N)N)C(=O)N[C@@H](CC(C)C)C(=O)N[C@@H](CO)C(=O)N[C@@H](C)C(=O)N[C@@H](CCC(=O)O)C(=O)N[C@@H](CC(C)C)C(=O)N[C@@H](Cc1c[nH]cn1)C(=O)N[C@@H](CCC(=O)O)C(=O)N[C@@H](CC(C)C)C(=O)N[C@@H](C)C(=O)N[C@H](C(=O)N[C@@H](CC(C)C)C(=O)N1CCC[C@H]1C(=O)N[C@@H](CCCNC(=N)N)C(=O)N[C@H](C(=O)N[C@@H](CCC(=O)O)C(=O)N[C@H](C(=O)NCC(=O)N[C@@H](CO)C(=O)N[C@@H](CCC(=O)O)C(=O)N[C@@H](CO)C(=O)N1CCC[C@H]1C(N)=O)[C@@H](C)O)[C@@H](C)O)[C@@H](C)O
B2: [N-terminal(C18 diacid), 5H]mimylin (peptide)
peptide: {C18 diacid}-EASEHSTAALGRLSAELHELATLPRTETGPESP-NH2
SMILES: CC(C)C[C@H](NC(=O)[C@H](C)NC(=O)[C@H](C)NC(=O)[C@@H](NC(=O)[C@H](CO)NC(=O)[C@H](Cc1c[nH]cn1)NC(=O)[C@H](CCC(=O)O)NC(=O)[C@H](CO)NC(=O)[C@H](C)NC(=O)[C@H](CCC(=O)O)NC(=O)CCCCCCCCCCCCCCCCC(=O)O)[C@@H](C)O)C(=O)NCC(=O)N[C@@H](CCCNC(=N)N)C(=O)N[C@@H](CC(C)C)C(=O)N[C@@H](CO)C(=O)N[C@@H](C)C(=O)N[C@@H](CCC(=O)O)C(=O)N[C@@H](CC(C)C)C(=O)N[C@@H](Cc1c[nH]cn1)C(=O)N[C@@H](CCC(=O)O)C(=O)N[C@@H](CC(C)C)C(=O)N[C@@H](C)C(=O)N[C@H](C(=O)N[C@@H](CC(C)C)C(=O)N1CCC[C@H]1C(=O)N[C@@H](CCCNC(=N)N)C(=O)N[C@H](C(=O)N[C@@H](CCC(=O)O)C(=O)N[C@H](C(=O)NCC(=O)N1CCC[C@H]1C(=O)N[C@@H](CCC(=O)O)C(=O)N[C@@H](CO)C(=O)N1CCC[C@H]1C(N)=O)[C@@H](C)O)[C@@H](C)O)[C@@H](C)O
B3: [N-terminal(C18 diacid), 32H]mimylin (peptide)
peptide: {C18 diacid}-EASELSTAALGRLSAELHELATLPRTETGPEHP-NH2
SMILES: CC(C)C[C@H](NC(=O)[C@H](C)NC(=O)[C@H](C)NC(=O)[C@@H](NC(=O)[C@H](CO)NC(=O)[C@H](CC(C)C)NC(=O)[C@H](CCC(=O)O)NC(=O)[C@H](CO)NC(=O)[C@H](C)NC(=O)[C@H](CCC(=O)O)NC(=O)CCCCCCCCCCCCCCCCC(=O)O)[C@@H](C)O)C(=O)NCC(=O)N[C@@H](CCCNC(=N)N)C(=O)N[C@@H](CC(C)C)C(=O)N[C@@H](CO)C(=O)N[C@@H](C)C(=O)N[C@@H](CCC(=O)O)C(=O)N[C@@H](CC(C)C)C(=O)N[C@@H](Cc1c[nH]cn1)C(=O)N[C@@H](CCC(=O)O)C(=O)N[C@@H](CC(C)C)C(=O)N[C@@H](C)C(=O)N[C@H](C(=O)N[C@@H](CC(C)C)C(=O)N1CCC[C@H]1C(=O)N[C@@H](CCCNC(=N)N)C(=O)N[C@H](C(=O)N[C@@H](CCC(=O)O)C(=O)N[C@H](C(=O)NCC(=O)N1CCC[C@H]1C(=O)N[C@@H](CCC(=O)O)C(=O)N[C@@H](Cc1c[nH]cn1)C(=O)N1CCC[C@H]1C(N)=O)[C@@H](C)O)[C@@H](C)O)[C@@H](C)O
B4: [N-terminal(C18 diacid), 6H]mimylin (peptide)
peptide: {C18 diacid}-EASELHTAALGRLSAELHELATLPRTETGPESP-NH2
SMILES: CC(C)C[C@H](NC(=O)[C@H](C)NC(=O)[C@H](C)NC(=O)[C@@H](NC(=O)[C@H](Cc1c[nH]cn1)NC(=O)[C@H](CC(C)C)NC(=O)[C@H](CCC(=O)O)NC(=O)[C@H](CO)NC(=O)[C@H](C)NC(=O)[C@H](CCC(=O)O)NC(=O)CCCCCCCCCCCCCCCCC(=O)O)[C@@H](C)O)C(=O)NCC(=O)N[C@@H](CCCNC(=N)N)C(=O)N[C@@H](CC(C)C)C(=O)N[C@@H](CO)C(=O)N[C@@H](C)C(=O)N[C@@H](CCC(=O)O)C(=O)N[C@@H](CC(C)C)C(=O)N[C@@H](Cc1c[nH]cn1)C(=O)N[C@@H](CCC(=O)O)C(=O)N[C@@H](CC(C)C)C(=O)N[C@@H](C)C(=O)N[C@H](C(=O)N[C@@H](CC(C)C)C(=O)N1CCC[C@H]1C(=O)N[C@@H](CCCNC(=N)N)C(=O)N[C@H](C(=O)N[C@@H](CCC(=O)O)C(=O)N[C@H](C(=O)NCC(=O)N1CCC[C@H]1C(=O)N[C@@H](CCC(=O)O)C(=O)N[C@@H](CO)C(=O)N1CCC[C@H]1C(N)=O)[C@@H](C)O)[C@@H](C)O)[C@@H](C)O
B5: [N-terminal(C18 diacid), 23Y]mimylin (peptide)
peptide: {C18 diacid}-EASELSTAALGRLSAELHELATYPRTETGPESP-NH2
SMILES: CC(C)C[C@H](NC(=O)[C@H](C)NC(=O)[C@H](C)NC(=O)[C@@H](NC(=O)[C@H](CO)NC(=O)[C@H](CC(C)C)NC(=O)[C@H](CCC(=O)O)NC(=O)[C@H](CO)NC(=O)[C@H](C)NC(=O)[C@H](CCC(=O)O)NC(=O)CCCCCCCCCCCCCCCCC(=O)O)[C@@H](C)O)C(=O)NCC(=O)N[C@@H](CCCNC(=N)N)C(=O)N[C@@H](CC(C)C)C(=O)N[C@@H](CO)C(=O)N[C@@H](C)C(=O)N[C@@H](CCC(=O)O)C(=O)N[C@@H](CC(C)C)C(=O)N[C@@H](Cc1c[nH]cn1)C(=O)N[C@@H](CCC(=O)O)C(=O)N[C@@H](CC(C)C)C(=O)N[C@@H](C)C(=O)N[C@H](C(=O)N[C@@H](Cc1ccc(O)cc1)C(=O)N1CCC[C@H]1C(=O)N[C@@H](CCCNC(=N)N)C(=O)N[C@H](C(=O)N[C@@H](CCC(=O)O)C(=O)N[C@H](C(=O)NCC(=O)N1CCC[C@H]1C(=O)N[C@@H](CCC(=O)O)C(=O)N[C@@H](CO)C(=O)N1CCC[C@H]1C(N)=O)[C@@H](C)O)[C@@H](C)O)[C@@H](C)O
B6: [N-terminal(C18 diacid), 8L]mimylin (peptide)
peptide: {C18 diacid}-EASELSTLALGRLSAELHELATLPRTETGPESP-NH2
SMILES: CC(C)C[C@H](NC(=O)[C@H](C)NC(=O)[C@H](CC(C)C)NC(=O)[C@@H](NC(=O)[C@H](CO)NC(=O)[C@H](CC(C)C)NC(=O)[C@H](CCC(=O)O)NC(=O)[C@H](CO)NC(=O)[C@H](C)NC(=O)[C@H](CCC(=O)O)NC(=O)CCCCCCCCCCCCCCCCC(=O)O)[C@@H](C)O)C(=O)NCC(=O)N[C@@H](CCCNC(=N)N)C(=O)N[C@@H](CC(C)C)C(=O)N[C@@H](CO)C(=O)N[C@@H](C)C(=O)N[C@@H](CCC(=O)O)C(=O)N[C@@H](CC(C)C)C(=O)N[C@@H](Cc1c[nH]cn1)C(=O)N[C@@H](CCC(=O)O)C(=O)N[C@@H](CC(C)C)C(=O)N[C@@H](C)C(=O)N[C@H](C(=O)N[C@@H](CC(C)C)C(=O)N1CCC[C@H]1C(=O)N[C@@H](CCCNC(=N)N)C(=O)N[C@H](C(=O)N[C@@H](CCC(=O)O)C(=O)N[C@H](C(=O)NCC(=O)N1CCC[C@H]1C(=O)N[C@@H](CCC(=O)O)C(=O)N[C@@H](CO)C(=O)N1CCC[C@H]1C(N)=O)[C@@H](C)O)[C@@H](C)O)[C@@H](C)O

molecular target: T1, human calcitonin receptor; assay: cell-based or functional assay

| Binder | hCTR funct. EC50 (pM) |
| --- | --- |
| B1 | 4 |
| B2 | 6 |
| B3 | 17 |
| B4 | 9 |
| B5 | 7 |
| {C14 diacid-γGlu}-ASELSTAALGRLSAELHELATLPRTETGPESP-NH2 [[N-terminal(C14 diacid-gGlu), des1]mimylin] | 3 |
| {C20 diacid}-EASELSTAALGRLSAELHELATLPRTETGSGSP-NH2 [[N-terminal(C20 diacid), 30S, 31G]mimylin] | 9 |
| {C18 diacid}-EASELSTAALGRLSAELHELATLPRTETGSGSP-NH2 [[N-terminal(C18 diacid), 30S, 31G]mimylin] | 6 |
| B6 | 7 |

molecular target: T2, human amylin 3(a) receptor (human …); assay: cell-based or functional assay

| Binder | hAmylin-R funct. EC50 (pM) |
| --- | --- |
| B1 | 9 |
| B2 | 8 |
| B3 | 20 |
| B4 | 15 |
| B5 | 11 |
| {C14 diacid-γGlu}-ASELSTAALGRLSAELHELATLPRTETGPESP-NH2 [[N-terminal(C14 diacid-gGlu), des1]mimylin] | 8 |
| {C20 diacid}-EASELSTAALGRLSAELHELATLPRTETGSGSP-NH2 [[N-terminal(C20 diacid), 30S, 31G]mimylin] | 11 |
| {C18 diacid}-EASELSTAALGRLSAELHELATLPRTETGSGSP-NH2 [[N-terminal(C18 diacid), 30S, 31G]mimylin] | 9 |
| B6 | 9 |
